This is an account of results in US20250108100A1, “C-TERMINAL FRAGMENT OF APOLIPOPROTEIN E AND APPLICATION THEREOF IN INHIBITING y-SECRETASE ACTIVITY” (SYNPHATEC (SHANGHAI) BIOPHARMACEUTICAL TECHNOLOGY CO., LTD., priority 2022, published 2025).

Data set [1] deals with human APP and β-secretase co-expressed in HEK 293T cells. The data set is described as follows: HEK 293T cells co-expressing APP and β-secretase (BACE1): Aβ ELISA and β-CTF Western blot. Type of data set: cell-based. On the procedure: The experiment was performed according to the standard procedure in the ELISA analysis kit of Invitrogen Company. • a) The target protein was expressed in HEK 293T cell line. Cells were subcultured one day before transfection, and transfection was performed when the degree of cell adhesion reached 70%-80%. The transfection reagent was lipofectamine2000 (ThermoFisher). • b) 4-6 hours post transfection, medium were replaced with fresh cell culture medium. • c) 36-48 hours post transfection, the cell culture medium was collected, and then the ELISA process was performed or the cell culture medium was frozen in a −80° C. refrigerator. • d) 50 μl of standard samples and experimental samples were added to each well of the 96-well plate. • e) 50 μl of human-derived Aβ40 or Aβ42 or mouse-derived Aβ40 detection antibody was added to each well of the 96-well plate. • f) The above samples were shaken gently and placed at room temperature for 3 hours. • g) The liquid in the well were removed, and the plate was washed 4 times with 1× wash buffer. • h) 100 μl of the buffer containing 1× anti-Rabbit IgG HRP was added. • i) The plate was shaken gently and placed at room temperature for […]. • j) The liquid in the well were removed, and the well was washed 4 times with 1× wash buffer. • k) 100 μl of Stabilized Chromogen was added to each well, and the plate was placed in the dark for 30 minutes at room temperature. • l) 100 μl of Stop Solution was added to each well. • m) The absorbance at 450 nm was measured with a microplate reader. 2.4 qRT-PCR
(§1) 48 hours after transfection of HEK 293T cells and N2A cells, or 4.5 days after lentivirus infection of neurons, media and lysates were collected. Aβ40 and Aβ42 in the culture medium and cell lysates were detected by an Aβ ELISA kit as indicated in the protocol. (Invitrogen Technology; KHB3481 for human Aβ40, KHB3441 for human Aβ42 and KMB3481 for mouse Aβ40).
Data were analyzed by GraphPad Prism software (v6) using unpaired, paired, or one-sample t-tests. Aβ40 and Aβ42 levels were normalized to the corresponding GFP controls. α-CTF levels were normalized to FL-APP and corresponding GFP controls. All data are represented as mean±SEM. Statistical significance was defined as p<0.05. One, two, three and four stars (*) in the graph indicate p-values <0.05, <0.01, <0.001 and <0.0001, respectively.
Background: An ELISA detects its analyte on a solid surface through an enzyme-linked reagent.

Data set [2] relates to mouse APP (mAPP). The data set is described as follows: α-CTF produced by mouse APP (mAPP) expressed in HEK 293T cells. To be noted: HEK 293T cells transiently expressing mAPP. In kind it is cell-based. The protocol: Plasmids were transfected in HEK 293T or N2A cells for 36-48 hours and then lysed in cell lysis buffer [10% 1M tris-HCl (pH=6.8), 4% SDS, 20% glycerol, 0.01% bromophenol blue]. Lysates were shaken at room temperature for 10 min, then boiled for 10 min, and centrifuged at 12,000×g for 10 min. Proteins were run on 8% or 12% Tris-glycine SDS-PAGE and transferred to PVDF membranes (Life Technologies). Samples were incubated overnight at 4° C. with primary antibody diluted in 5% BSA buffer (in 1×TBST). After washing 3 times with 1×TBST, they were incubated with secondary antibody diluted in 5% BSA buffer (in 1×TBST) for 2 hours at room temperature. Finally, after washing 3 times with 1×TBST, the signal was detected by ECL Western blotting substrate (Solarbio, PE0010).

In data set [3] the test system is 5×FAD mice. Kind of data set: Distribution of neuronally expressed ApoE around amyloid plaques in 5×FAD mice (immunofluorescence). In kind it is in vivo, mouse. The protocol: Mice were anesthetized with isoflurane and perfused with 4% PFA. Dissected mouse brains were fixed overnight in 4% PFA and cryoprotected overnight in 30% sucrose. A cryostat (Leica CM3050S) was used to obtain frozen brain slices ([…]) from fixed and cryoprotected mouse brains. Floating slices were washed 3 times with 1×PBS and then permeabilized with 0.5% Triton-X in 1×PBS for 30 minutes. After blocking with 5% BSA in 1×PBS at room temperature for 1 h, the slices were incubated overnight at 4° C. in 5% BSA (in 1×PBS) buffer comprising the primary antibody. Slices were washed 3 times with 1×PBS and incubated with secondary antibody diluted in 5% BSA (1×PBS) buffer for 1 hour at room temperature. Samples were then washed 3 times with 1×PBS and mounted with Prolong Gold Antifade Mountant (Life Technology).
After being deeply anesthetized with isoflurane, mice (5 weeks old) were placed in a stereotaxic apparatus (RWD Instruments). The zero point (x, y, z, 0, 0, 0) is Bregma. Lentivirus (lentivirus-GFP, lentivirus-ApoE and lentivirus-ApoE-IRES-GFP) and AAV (AAV2/9-hSyn-EGFP-WPRE-pA and AAV2/9-hSyn-ApoECT; purchased from Shanghai Taitool Bioscience Co. Ltd.) were injected into the cortex (x, y, z, +/−1.6, 0, −1) or hippocampus (x, y, z, +/−1.5, −2, −1.5), injected 1 ul on each injection site. The mice were then returned to their cages for rehabilitation after surgery.

Data set [4] deals with human pluripotent stem cell-induced neurons. The data set is described as follows: Endogenous Aβ40 in human pluripotent stem cell-induced neurons (lentivirus, ELISA). In kind it is cell-based. The protocol:
• a) Construction of lentivirus expression plasmids, lentivirus-GFP and lentivirus-ApoE CT, which can be specifically expressed in neurons. • b) The lentivirus vectors were cotransfected with coat protein vectors (PSPAX2 and PMD2G) in HEK 293T cell line. Cells were subcultured one day before transfection, and transfection was performed when the degree of cell adhesion reached 70%-80%. The transfection reagent was Polyjet (SignaGen). • c) 36-48 hours after the transfection, the cell culture was collected and filtered through a 0.22 μm filter membrane. • d) The filtered cell culture solution was ultracentrifuged. Centrifuged at 20000 rpm, 4° C. for 2 hours and 5 minutes. • e) After centrifugation, the supernatant was removed, and the precipitation of every three precipitates of 10 cm cell culture medium was resuspended with 50 μl of PBS. • f) The resuspended virus was subpackaged and stored in a −80° C. refrigerator for subsequent experiments.
as §1

B1: ApoE CT: C-terminal fragment of ApoE, positions 216-299 of SEQ ID NO: 12; SEQ ID NO: 33 (protein)
chain: ARMEEMGSRTRDRLDEVKEQVAEVRAKLEEQAQQIRLQAEAFQARLKSWFEPLVEDMQRQWAGLVEKVQAAVGTSAAPVPSDNH
Regarding B1, in data set [1] (APP and BACE1, 1 μM GI254023X), the “Aβ40 in the presence of GI254023X” value is “decrease Aβ40”. Besides, in data set [1] (APP and BACE1, Western blot), the β-CTF levels entry is “did not alter β-CTF levels”. Moreover, in data set [1] (APP and β-secretase co-expressed, ELISA, vs GFP control), the “production of Aβ40” value is listed as “decreased Aβ40”. Besides, in data set [1] (APP, BACE1), the “Aβ40 in cell lysates, decreased by” value is listed as “about 42%”; the “Aβ40 secreted into the cell culture medium, reduced by” value was “about 75%”; the “Aβ42, reduced by” value is given as “about 74%”; the “ratio of Aβ42/Aβ40” value is “remains unchanged”. In data set [1] (ELISA), the Aβ40 is 25 % of GFP control and the Aβ42 entry was “about 26 % of GFP control”. The “α-CTF levels from mouse APP” value in data set [2] is recorded as “increases α-CTF levels”. The “migration to and accumulation around amyloid plaques” value in data set [3] (AAV expression in cortex, DG and CA3 neurons) was “migrated to the subiculum and accumulated in amyloid plaques”. The “accumulation around amyloid plaques” value in data set [3] (lentiviral vectors) is listed as “a similar distribution pattern was detected around amyloid plaques”. For the same molecule, the “reduction in Aβ40 production” value in data set [4] (hiPSC-induced neurons, lentiviral infection) is “approximately 46%”. Besides, the “endogenous Aβ40” value in data set [4] (human neurons from pluripotent stem cell line, lentivirus) is listed as “also reduces endogenous Aβ40”. Besides, the “endogenous production of Aβ40” value in data set [4] (human pluripotent stem cell-induced neurons) is on record as “about 54 % of controls”.
